Laboratory results reported in patent publication US20050164308A1, “Beta-lactamase CD4+ T-cell epitopes” (priority 2003, published 2005).
Changes are numbered by the printed parent chain. Numbers in names are those of the source.

B1: pCD1.1: epitope-modified beta-lactamase K21A/S324A (protein)
chain: TPVSEKQLAEVVANTITPLMAAQSVPGMAVAVIYQGKPHYYTFGKADIAANKPVTPQTLFELGSISKTFTGVLGGDAIARGEISLDDAVTRYWPQLTGKQWQGIRMLDLATYTAGGLPLQVPDEVTDNASLLRFYQNWQPQWKPGTTRLYANASIGLFGALAVKPSGMPYEQAMTTRVLKPLKLDHTWINVPKAEEAHYAWGYRDGKAVRVSPGMLDAQAYGVKTNVQDMANWVMANMAPENVADASLKQGIALAQSRYWRIGSMYQGLGWEMLNWPVEANTVVEGSDSKVALAPLPVAEVNPPAPPVKASWVHKTGSTGGFGAYVAFIPEKQIGIVMLANTSYPNPARVEAAYHILEALQ
B2: BLA: beta-lactamase precursor (cephalosporinase) from Enterobacter cloacae, GenBank Accession No. P05364, SEQ ID NO:1 (protein, listed as Enterobacter cloacae)
chain: B1 chain with A21K, A324S

Experiments:
[1] = system: PBMCs; assay: PBMC proliferation assay; format: cell-based, human; settings: 26 donors
Description: The blood samples used in these experiments were the same as described above (i.e., before Example 1). The PBMCs were separated using Lymphoprep, as known in the art. The PBMCs were washed in PBS and counted using a Cell Dyn® 3700 blood analyzer (Abbott). The cell numbers and differentials were recorded. The PBMCs were resuspended to 4×10^6 cells/ml, in a solution of heat-inactivated human AB serum, RPMI 1640, pen/strep, glutamine, and 2-ME. Then, 2 mls per well were plated into 24-well plates. Two wells were used as no-enzyme controls. Then, the unmodified beta-lactamase and modified beta-lactamases were added to the wells at a concentrations of 10 ug/ml, 20 ug/ml, and 40 ug/ml. The epitope-modified beta-lactamases tested were K21A/S324A (designated as “pCD1.1”) and K21A/S324A/L149S (designated as “pCD08.3”). The K21A mutation corresponds to SEQ ID NO:10, while the S324A mutation corresponds to SEQ ID NO:48, and the L149S mutation corresponds to SEQ ID NO:84. The S324 variant is in epitope #107, while K21A is in epitope #6, and L149S is in epitope #49. […] These plates were incubated for 6 hours, the cells harvested and counted. […] SI values were calculated by dividing the average for each set of eight wells for each sample by the average CPM for the control well. The data were analyzed by creating a dataset representing the highest SI value achieved for each donor and each enzyme. […]

[2] = system: mouse splenocytes; assay: Proliferative response of splenocytes from immunized mice to whole protein BLA or CD1.1; format: in vivo, CB6F1 mice; settings: mice immunized with the labelled protein; restimulated with BLA or CD1.1
Description: (§1) In this Example, experiments conducted to test the reduced immunogenicity of pCD1.1 in vivo are described. In these experiments, CB6F1 mice were immunized intraperitoneally with 20 μg of either wild-type BLA, or the CD1.1 protein in alum per mouse, as known in the art. Mice were immunized on days 1, 7, and 15 (i.e., d=1, d=7 and d=15). Splenocytes were tested for reactivity with BLA peptides on day 19. […] This response correlates with one of the human defined epitopes.
Splenocytes from immunized mice were tested in vitro for their proliferative response to whole protein BLA or CD1.1. […] However, it is not intended that the present invention be limited to any particular mechanism.

[3] = system: BLA-specific IgG1 antibody; assay: Antigen-specific ELISA on serum of thrice-immunized mice; format: in vivo, CB6F1 mice; settings: BLA or CD1.1 as plate coating
Description: as §1
In addition, serum samples were taken from the thrice-immunized mice and an antigen-specific ELISA was performed (FIG. 16). Mice immunized with BLA produced robust levels of anti-BLA IgG1 antibody. […] ELISA assays were performed using both BLA and CD1.1 as the plate-coating reagent, with identical results.

[4] = system: mouse splenocytes; assay: Proliferative response of splenocytes from immunized mice to BLA peptides; format: in vivo, CB6F1 mice; settings: mice immunized i.p. 20 μg in alum, days 1, 7, 15; tested day 19
Description: as §1

| Molecule | average proliferative response (SI) compared to wild-type beta-lactamase ([1]; 10, 20, 40 ug/ml, highest SI per donor) | percent of responders compared to wild-type beta-lactamase ([1]; responder if highest SI > 1.99) | in vitro proliferative response of immunized mouse splenocytes to whole protein [2] | anti-BLA IgG1 antibody level [3] | splenocyte proliferative response to the peptide 107 region [4] | splenocyte proliferative response to the peptide 114 region [4] |
| --- | --- | --- | --- | --- | --- | --- |
| B1 | less proliferation | fewer donors | unable to respond significantly | did not produce significant levels | no longer responded | no longer responded |
| B2 | – | – | increased | robust levels | respond strongly | Responses were also noted |
